What is called EC50 is the concentration needed to bring the measured effect to its halfway point.

For assay [1], the target named is ActRII (type II activin receptor) transfected into 293T cells (UniProt P27038). Nature of the assay: cell-based or functional assay.
For assay [2], the target named is T1, ALK4 (activin type I receptor) (UniProt P36896 24-505, limits assumed).
T1 sequence (looked up): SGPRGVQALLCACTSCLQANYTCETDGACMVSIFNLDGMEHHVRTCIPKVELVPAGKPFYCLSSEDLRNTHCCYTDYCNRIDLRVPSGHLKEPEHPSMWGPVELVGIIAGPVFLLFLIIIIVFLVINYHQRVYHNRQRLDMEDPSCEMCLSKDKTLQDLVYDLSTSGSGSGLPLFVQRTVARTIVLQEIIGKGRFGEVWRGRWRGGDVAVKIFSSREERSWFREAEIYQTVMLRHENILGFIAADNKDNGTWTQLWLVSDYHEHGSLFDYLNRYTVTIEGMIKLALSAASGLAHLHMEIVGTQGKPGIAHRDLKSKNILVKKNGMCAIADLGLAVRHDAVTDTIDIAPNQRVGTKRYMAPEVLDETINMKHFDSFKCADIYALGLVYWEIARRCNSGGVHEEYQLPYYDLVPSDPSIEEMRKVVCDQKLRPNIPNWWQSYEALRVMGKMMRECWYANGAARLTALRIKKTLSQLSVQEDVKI
Nature of the assay: cell-based or functional assay.

Assay [3] addresses T2, ActRII and ALK4 co-transfected into 293T cells (UniProt P27038 20-513; P36896 24-505).
T2 construct: whole, on cells; Both receptors on the same cells; also called cells transfected with ActRII and ALK4; receptor complex
Put plainly: competition binding, 125I-activin on 293T cells transfected with ActRII and ALK4.

For assay [4], the target named is T3, mouse ActRII transfected into 293T cells (mouse, UniProt P27038 20-513).
T3 construct: whole, on cells
Nature of the assay: ActRII binding, 293T cells transfected with mouse ActRII. The procedure:
After the incubation cells were washed three times with HDB buffer and lysed with 1% SDS solution. Radioactivity in the lysate was determined using a gamma counter.
Therefore, the inventors contemplate engineering a series of activin-A chimeras, such as activin-A/C chimeras, preferably having a peptide tag such a FLAG tag, in each of […] in the wrist loop and helix (such as A/C 46-53, 54-63, 64-69, 70-78) are replaced. Additionally, a chimera was generated in which the entire wrist region (A/C 46-78) was changed from activin-A to activin-C or some other analogous TGF-β member. In one example, the chimeras were assessed for ActRII binding, activin bioactivity as well as antagonistic properties. […] Maximum activity of A/C 64-69 and 70-78, however, was reduced down to about 20-50% and 60-90%, respectively, when compared to wt activin. […] Additionally, A/C 46-78 decreased the basal and activin induced FSH release from cultured rat anterior pituitary cells in a concentration dependent manner. […] The activin antagonist A/C 46-78 may be useful for the study and modulation of activin dependent processes.

The target of assay [5] is T1, ALK4 (activin type I receptor). Put plainly: cell-based or functional assay. This is another data set of the same source.
The target of assay [6] is activin receptors of non-transfected 293T cells. Nature of the assay: competition binding, 125I-activin on non-transfected 293T cells.
Assay [7] concerns the target type II activin receptors in 293T cells. Nature of the assay: cell-based or functional assay.
Assay [8] has as its target T1, ALK4 (activin type I receptor). Put plainly: DSS crosslinking of 125I-M108A to 293T cells transfected with ActRII-myc and ALK4, immunoprecipitation, SDS-PAGE, autoradiography. The procedure:
Cells were incubated with labeled activin or labeled M108A as indicated, subjected to covalent crosslinking with dissucinylsuberate (DSS), solubilized in lysis buffer, immunoprecipitated using an antibody against myc or ALK4 and then immunoprecipitated proteins were resolved by SDS-PAGE and visualized by autoradiography.
Approximately 24 h later, cells were transfected with 2 μg DNA per well with the indicated constructs (the ratio of ActRII:ALK4 was 2:1 and total DNA was kept constant using pcDNA3.0). […] Cells were washed in HDB, resuspended at 0.5 mM disuccinylsuberate (DSS) in HDB and incubated 30 min on ice. Crosslinking reactions were quenched with TBS (50 mM Tris-HCl pH 7.5, 150 mM NaCl) and cells were solubilized in lysis buffer (TBS containing 1% NP-40, 0.5% deoxycholate and 2 mM EDTA) and subjected to immunopreciptation using anti-myc or anti-ALK4 antibodies as indicated. Immune complexes were analyzed by SDS-PAGE and autoradiography.

T3 sequence (P27038 20-513): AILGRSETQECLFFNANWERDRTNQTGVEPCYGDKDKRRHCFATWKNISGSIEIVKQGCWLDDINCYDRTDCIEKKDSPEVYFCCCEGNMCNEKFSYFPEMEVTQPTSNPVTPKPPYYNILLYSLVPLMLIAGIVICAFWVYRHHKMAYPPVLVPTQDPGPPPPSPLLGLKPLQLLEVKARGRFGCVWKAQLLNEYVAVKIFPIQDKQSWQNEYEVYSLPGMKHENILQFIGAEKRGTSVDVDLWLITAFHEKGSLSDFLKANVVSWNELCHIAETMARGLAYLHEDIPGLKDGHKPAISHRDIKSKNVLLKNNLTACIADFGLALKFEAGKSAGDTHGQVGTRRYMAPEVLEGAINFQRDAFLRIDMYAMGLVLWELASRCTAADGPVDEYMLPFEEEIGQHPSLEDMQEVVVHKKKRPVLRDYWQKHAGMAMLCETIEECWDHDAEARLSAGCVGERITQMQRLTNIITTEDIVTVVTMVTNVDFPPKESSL
Chain of ActRII (type II activin receptor) transfected into 293T cells (P27038 20-513): as above
T2 sequence (P27038 20-513, one chain of several): as the sequence (P27038 20-513) above

B1: activin-A K102E (ligand, human, UniProt P08476 311-426, looked up)
chain: GLECDGKVNICCKKQFFVSFKDIGWNDWIIAPSGYHANYCEGECPSHIAGTSGSSLSFHSTVINHYRMRGHSPFANLKSCCVPTKLRPMSMLYYDDGQNIIEKDIQNMIVEECGCS
Regarding B1, the % Activin Activity (A3-luciferase assay in 293T cells) (% of wild type activin-A) in assay [1] turned out to be 18.

B2: wild type activin-A (ligand, human, UniProt P08476 311-426, looked up)
chain: GLECDGKVNICCKKQFFVSFKDIGWNDWIIAPSGYHANYCEGECPSHIAGTSGSSLSFHSTVINHYRMRGHSPFANLKSCCVPTKLRPMSMLYYDDGQNIIKKDIQNMIVEECGCS
notes: mature; As tracer it was radioiodinated by the chloramine T method; also called WT activin-A; wt activin-A
For B2, the “EC50 of activity in the A3 Lux reporter assay in 293T cells” value in assay [2] turned out to be 0.2 nM. Further, in assay [3], the “fold higher affinity than in cells transfected with ActRII alone” value is 2 fold. The same molecule registered an EC50 in assay [4] of 0.15 nM. Moreover, the “% Activin Activity (A3-luciferase assay in 293T cells)” value in assay [5] was 100 % of wild type activin-A. Besides, in assay [6], the apparent affinity fell in the range of 60 to 80 pM and the fold higher affinity than in cells transfected with ActRII alone amounted to 2 fold.

B3: activin-A (M108A), P08476 311-426 (ligand, human, UniProt P08476 311-426, looked up)
chain: GLECDGKVNICCKKQFFVSFKDIGWNDWIIAPSGYHANYCEGECPSHIAGTSGSSLSFHSTVINHYRMRGHSPFANLKSCCVPTKLRPMSMLYYDDGQNIIKKDIQNAIVEECGCS
In assay [7], B3 yielded an activin-A (100 pM) induced luciferase response in 293T cells with increasing amounts of M108A (fold induction) of 23 and a myostatin (500 pM) induced luciferase response in 293T cells with increasing doses of M108A (fold induction) of 26.

B4: activin-A I105E (ligand, human, UniProt P08476 311-426, looked up)
chain: GLECDGKVNICCKKQFFVSFKDIGWNDWIIAPSGYHANYCEGECPSHIAGTSGSSLSFHSTVINHYRMRGHSPFANLKSCCVPTKLRPMSMLYYDDGQNIIKKDEQNMIVEECGCS
As to B4, in assay [5], the “% Activin Activity (A3-luciferase assay in 293T cells)” value is 13 % of wild type activin-A.

B5: activin-A I63P (ligand, human, UniProt P08476 311-426, looked up)
chain: GLECDGKVNICCKKQFFVSFKDIGWNDWIIAPSGYHANYCEGECPSHIAGTSGSSLSFHSTVPNHYRMRGHSPFANLKSCCVPTKLRPMSMLYYDDGQNIIKKDIQNMIVEECGCS
Consider B5, for which, in assay [5], the “% Activin Activity (A3-luciferase assay in 293T cells)” value was 19 % of wild type activin-A.

B6: activin-A/C chimera A/C 54-63 (ligand, UniProt P08476 311-363, looked up)
chain: GLECDGKVNICCKKQFFVSFKDIGWNDWIIAPSGYHANYCEGECPSHIAGTSGIAASFHTAVLNHYRMRGHSPFANLKSCCVPTKLRPMSMLYYDDGQNIIKKDIQNMIVEECGCS
notes: range 1-53 of the mature chain;range 54-63 of the mature chain;range 64 to C-terminus of the mature chain
As to B6, the binding result in assay [4] was “binds”.

B7: activin-A M91E (ligand, human, UniProt P08476 311-426, looked up)
chain: GLECDGKVNICCKKQFFVSFKDIGWNDWIIAPSGYHANYCEGECPSHIAGTSGSSLSFHSTVINHYRMRGHSPFANLKSCCVPTKLRPMSELYYDDGQNIIKKDIQNMIVEECGCS
With B7, the “% Activin Activity (A3-luciferase assay in 293T cells)” value in assay [5] was 3 % of wild type activin-A.

B8: activin-A/C chimera A/C 64-69 (ligand, UniProt P08476 311-373, looked up)
chain: GLECDGKVNICCKKQFFVSFKDIGWNDWIIAPSGYHANYCEGECPSHIAGTSGSSLSFHSTVINLLKANGHSPFANLKSCCVPTKLRPMSMLYYDDGQNIIKKDIQNMIVEECGCS
notes: range 1-63 of the mature chain;range 64-69 of the mature chain;range 70 to C-terminus of the mature chain
In the case of B8, in assay [4], the binding result is on record as “binds”.

B9: A/C-2 chimeric activin A/activin C protein (ligand, human, UniProt P08476 311-426, looked up)
chain: GLECDGKVNICCKKQFFVSFKDIGWNDWIIAPSGYHANYCEGECPSHIAGTSGSSLSFHTAVLNLLKANTAAPFANLKSCCVPTKLRPMSMLYYDDGQNIIKKDIQNMIVEECGCS
B9: the “% Activin Activity (A3-luciferase assay in 293T cells)” value in assay [5] is 17 % of wild type activin-A.

B10: activin-A/C chimera A/C 46-53 (ligand, UniProt P08476 311-355, looked up)
chain: GLECDGKVNICCKKQFFVSFKDIGWNDWIIAPSGYHANYCEGECPLHIAGMPGSSLSFHSTVINHYRMRGHSPFANLKSCCVPTKLRPMSMLYYDDGQNIIKKDIQNMIVEECGCS
notes: range 1-45 of the mature chain;range 46-53 of the mature chain;range 54 to C-terminus of the mature chain
Regarding B10, in assay [4], the binding result is given as “binds”.

B11: activin-A S60P (ligand, human, UniProt P08476 311-426, looked up)
chain: GLECDGKVNICCKKQFFVSFKDIGWNDWIIAPSGYHANYCEGECPSHIAGTSGSSLSFHPTVINHYRMRGHSPFANLKSCCVPTKLRPMSMLYYDDGQNIIKKDIQNMIVEECGCS
On to B11, for which the “% Activin Activity (A3-luciferase assay in 293T cells)” value in assay [5] is 17 % of wild type activin-A.

B12: activin-A/C chimera A/C 70-78 (ligand, UniProt P08476 311-379, looked up)
chain: GLECDGKVNICCKKQFFVSFKDIGWNDWIIAPSGYHANYCEGECPSHIAGTSGSSLSFHSTVINHYRMRTAAGTTGGGSCCVPTKLRPMSMLYYDDGQNIIKKDIQNMIVEECGCS
notes: range 1-69 of the mature chain;range 70-78 of the mature chain;range 79 to C-terminus of the mature chain
As for B12, in assay [4], the binding result was “binds”.

B13: activin-A M108E (ligand, human, UniProt P08476 311-426, looked up)
chain: GLECDGKVNICCKKQFFVSFKDIGWNDWIIAPSGYHANYCEGECPSHIAGTSGSSLSFHSTVINHYRMRGHSPFANLKSCCVPTKLRPMSMLYYDDGQNIIKKDIQNEIVEECGCS
Turning to B13, the “% Activin Activity (A3-luciferase assay in 293T cells)” value in assay [5] is 3 % of wild type activin-A.

B14: activin-A (M108A) (ligand, human, UniProt P08476 311-426, looked up)
chain: GLECDGKVNICCKKQFFVSFKDIGWNDWIIAPSGYHANYCEGECPSHIAGTSGSSLSFHSTVINHYRMRGHSPFANLKSCCVPTKLRPMSMLYYDDGQNIIKKDIQNAIVEECGCS
notes: mature; Radioiodinated by the chloramine T method for the crosslinking study; also called M108A activin-A; M108A mutant
With B14, the binding result in assay [8] is on record as “no binding”. In addition, in assay [5], the “% Activin Activity (A3-luciferase assay in 293T cells)” value was 8 % of wild type activin-A. The affinity in assay [6] is 370 pM.

B15: activin-A/C chimera A/C 46-78 (ligand, UniProt P08476 311-355, looked up)
chain: GLECDGKVNICCKKQFFVSFKDIGWNDWIIAPSGYHANYCEGECPLHIAGMPGIAASFHTAVLNLLKANTAAGTTGGGSCCVPTKLRPMSMLYYDDGQNIIKKDIQNMIVEECGCS
notes: range 1-45 of the mature chain;range 46-78 of the mature chain;range 79 to C-terminus of the mature chain; also called A/C 46-78 chimera
For B15, the binding result in assay [4] was “binds”.

The values above are taken from patent US20060008846A1 (RESEARCH DEVELOPMENT FOUNDATION, published 2006).
